The results in this text go back to the array DNA melting data of Ke et al..

The data set in a line: melting temperature; melt of duplexes. The note with it: sodium 0.0675 M; strand 1 µM.
As to “CGACGTGCAAAATGTGCTG+CAGCACATACTGCACGTCG (((((((((..((((((((+))))))))..)))))))))”, the Tm was 50.4 °C.
Regarding “CGACGTGCGATATGTGCTG+CAGCACATGATGCACGTCG ((((((((...((((((((+))))))))...))))))))”, the Tm was 53.8 °C.
For the substance “CGACGTGCGCCATGTGCTG+CAGCACATGGAGCACGTCG ((((((((.((((((((((+)))))))))).))))))))”, the Tm was determined as 62.3 °C.
The result for “CGACGTGCTCCATGTGCTG+CAGCACATGATGCACGTCG ((((((((..(((((((((+)))))))))..))))))))” reads 53.7 °C; that for “CGACGTGCCCTATGTGCTG+CAGCACATTGTGCACGTCG ((((((((.(.((((((((+)))))))).).))))))))”, 47.8 °C.
Turning to “CGACGTGCGCCATGTGCTG+CAGCACATCGGGCACGTCG ((((((((.(.((((((((+)))))))).).))))))))”, the Tm worked out at 51.2 °C.
Regarding “CGACGTGCAGGATGTGCTG+CAGCACATTTAGCACGTCG ((((((((...((((((((+))))))))...))))))))”, the Tm worked out at 50.3 °C.
On to “CGACGTGCGGAATGTGCTG+CAGCACATGGGGCACGTCG ((((((((...((((((((+))))))))...))))))))”, for which the Tm was 52.9 °C.
For “CGACGTGCTCCATGTGCTG+CAGCACATTATGCACGTCG ((((((((...((((((((+))))))))...))))))))”, the Tm came out at 47.6 °C.
The result for “CGACGTGCAAGATGTGCTG+CAGCACATACGGCACGTCG ((((((((...((((((((+))))))))...))))))))” reads 49.2 °C.
Take “CGACGTGCTACATGTGCTG+CAGCACATCGAGCACGTCG (((((((((..((((((((+))))))))..)))))))))”: the Tm came to 51.6 °C.
In the case of “CGACGTGCATAATGTGCTG+CAGCACATCCGGCACGTCG ((((((((...((((((((+))))))))...))))))))”, the Tm was 48.3 °C.
Take “CGACGTGCATAATGTGCTG+CAGCACATATCGCACGTCG ((((((((...((((((((+))))))))...))))))))”: the melting temperature (Tm) came out at 48.6 °C.
Take “CGACGTGCACTATGTGCTG+CAGCACATCCCGCACGTCG ((((((((...((((((((+))))))))...))))))))”: the Tm was determined as 42.6 °C.
The result for “CGACGTGCTCGATGTGCTG+CAGCACATACAGCACGTCG (((((((((..((((((((+))))))))..)))))))))” reads 51.8 °C; that for “CGACGTGCTCCATGTGCTG+CAGCACATGTGGCACGTCG ((((((((..(((((((((+)))))))))..))))))))”, 53.8 °C.
For the substance “CGACGTGCCCGATGTGCTG+CAGCACATCGGGCACGTCG (((((((((((((((((((+)))))))))))))))))))”, the Tm came out at 68.2 °C.
The result for “CGACGTGCGGCATGTGCTG+CAGCACATAGAGCACGTCG ((((((((...((((((((+))))))))...))))))))” reads 56.4 °C; that for “CGACGTGCAGGATGTGCTG+CAGCACATCACGCACGTCG ((((((((..(((((((((+)))))))))..))))))))”, 55.9 °C.
For “CGACGTGCTAAATGTGCTG+CAGCACATGTTGCACGTCG ((((((((.(.((((((((+)))))))).).))))))))”, the Tm was found to be 52.6 °C.
Turning to “CGACGTGCAAGATGTGCTG+CAGCACATGTCGCACGTCG ((((((((.(.((((((((+)))))))).).))))))))”, the Tm was 51.3 °C.
With “CGACGTGCACCATGTGCTG+CAGCACATTCAGCACGTCG ((((((((...((((((((+))))))))...))))))))”, the Tm turned out to be 42.6 °C.
The result for “CGACGTGCCGAATGTGCTG+CAGCACATGGGGCACGTCG (((((((((..((((((((+))))))))..)))))))))” reads 56.8 °C.
Next, “CGACGTGCAAGATGTGCTG+CAGCACATAGCGCACGTCG ((((((((...((((((((+))))))))...))))))))”: 49.8 °C; “CGACGTGCTCCATGTGCTG+CAGCACATGACGCACGTCG ((((((((..(((((((((+)))))))))..))))))))”: 49.8 °C; “CGACGTGCGCAATGTGCTG+CAGCACATTCAGCACGTCG ((((((((..(((((((((+)))))))))..))))))))”: 53.1 °C.
Take “CGACGTGCGAGATGTGCTG+CAGCACATCACGCACGTCG (((((((((.(((((((((+))))))))).)))))))))”: the Tm came to 61.4 °C.
In the case of “CGACGTGCACAATGTGCTG+CAGCACATCCTGCACGTCG (((((((((..((((((((+))))))))..)))))))))”, the midpoint of thermal melting (Tm) amounted to 47.1 °C.
Take “CGACGTGCTGGATGTGCTG+CAGCACATTGCGCACGTCG ((((((((...((((((((+))))))))...))))))))”: the Tm was determined as 49.5 °C.
“CGACGTGCGGGATGTGCTG+CAGCACATAGGGCACGTCG ((((((((...((((((((+))))))))...))))))))”: the Tm turned out to be 50.1 °C.
Turning to “CGACGTGCGCTATGTGCTG+CAGCACATTGTGCACGTCG ((((((((.(.((((((((+)))))))).).))))))))”, the Tm amounted to 51.9 °C.
For the substance “CGACGTGCCTTATGTGCTG+CAGCACATCTCGCACGTCG ((((((((...((((((((+))))))))...))))))))”, the Tm was found to be 46.6 °C.
Take “CGACGTGCGACATGTGCTG+CAGCACATCACGCACGTCG (((((((((..((((((((+))))))))..)))))))))”: the Tm is 52.7 °C.
Consider “CGACGTGCACGATGTGCTG+CAGCACATCCCGCACGTCG ((((((((..(((((((((+)))))))))..))))))))”, for which the Tm is 49.9 °C.
The result for “CGACGTGCGGAATGTGCTG+CAGCACATTTGGCACGTCG ((((((((..(((((((((+)))))))))..))))))))” reads 54.6 °C; that for “CGACGTGCTGGATGTGCTG+CAGCACATGCCGCACGTCG ((((((((.(.((((((((+)))))))).).))))))))”, 53.6 °C.
On to “CGACGTGCACGATGTGCTG+CAGCACATACGGCACGTCG ((((((((...((((((((+))))))))...))))))))”, for which the Tm came out at 48.2 °C.
In the case of “CGACGTGCATTATGTGCTG+CAGCACATAATGCACGTCG (((((((((((((((((((+)))))))))))))))))))”, the Tm stood at 60.7 °C.
On to “CGACGTGCCTTATGTGCTG+CAGCACATTAAGCACGTCG ((((((((.(.((((((((+)))))))).).))))))))”, for which the Tm amounted to 49.8 °C.
Consider “CGACGTGCGGTATGTGCTG+CAGCACATAACGCACGTCG (((((((((.(((((((((+))))))))).)))))))))”, for which the Tm came out at 61.4 °C.
“CGACGTGCCATATGTGCTG+CAGCACATTAGGCACGTCG (((((((((..((((((((+))))))))..)))))))))”: the Tm is 55.6 °C.
Regarding “CGACGTGCACTATGTGCTG+CAGCACATCTTGCACGTCG (((((((((..((((((((+))))))))..)))))))))”, the Tm turned out to be 46.5 °C.
For “CGACGTGCGCCATGTGCTG+CAGCACATTCCGCACGTCG (((((((((..((((((((+))))))))..)))))))))”, the Tm is 50.9 °C.
The result for “CGACGTGCATTATGTGCTG+CAGCACATGATGCACGTCG ((((((((((.((((((((+)))))))).))))))))))” reads 58.1 °C; that for “CGACGTGCCCCATGTGCTG+CAGCACATGGCGCACGTCG ((((((((.((((((((((+)))))))))).))))))))”, 57.3 °C; that for “CGACGTGCCTAATGTGCTG+CAGCACATTAAGCACGTCG ((((((((.((((((((((+)))))))))).))))))))”, 53.4 °C.
As for “CGACGTGCAGCATGTGCTG+CAGCACATTTGGCACGTCG ((((((((...((((((((+))))))))...))))))))”, the Tm was 45.4 °C.
As to “CGACGTGCCTCATGTGCTG+CAGCACATAATGCACGTCG ((((((((.(.((((((((+)))))))).).))))))))”, the Tm was determined as 48 °C.
For “CGACGTGCTGTATGTGCTG+CAGCACATAGAGCACGTCG (((((((((.(((((((((+))))))))).)))))))))”, the Tm came out at 55.9 °C.
In the case of “CGACGTGCGTAATGTGCTG+CAGCACATCTAGCACGTCG ((((((((...((((((((+))))))))...))))))))”, the Tm was found to be 54.7 °C.
Turning to “CGACGTGCAACATGTGCTG+CAGCACATCGTGCACGTCG (((((((((..((((((((+))))))))..)))))))))”, the Tm stood at 47.9 °C.
Turning to “CGACGTGCACCATGTGCTG+CAGCACATTACGCACGTCG ((((((((...((((((((+))))))))...))))))))”, the Tm was determined as 42.4 °C.
The result for “CGACGTGCCAGATGTGCTG+CAGCACATGTGGCACGTCG ((((((((((.((((((((+)))))))).))))))))))” reads 60 °C.
On to “CGACGTGCCCAATGTGCTG+CAGCACATAGCGCACGTCG ((((((((.(.((((((((+)))))))).).))))))))”, for which the Tm was 48.9 °C.
The result for “CGACGTGCCCCATGTGCTG+CAGCACATCCGGCACGTCG (((((((((..((((((((+))))))))..)))))))))” reads 51.4 °C; that for “CGACGTGCAATATGTGCTG+CAGCACATCATGCACGTCG (((((((((..((((((((+))))))))..)))))))))”, 50.3 °C; that for “CGACGTGCCTGATGTGCTG+CAGCACATGCAGCACGTCG ((((((((...((((((((+))))))))...))))))))”, 50.4 °C.
On to “CGACGTGCCACATGTGCTG+CAGCACATTAGGCACGTCG (((((((((..((((((((+))))))))..)))))))))”, for which the Tm was 54.2 °C.
For “CGACGTGCGGCATGTGCTG+CAGCACATGTGGCACGTCG ((((((((..(((((((((+)))))))))..))))))))”, the Tm amounted to 56.8 °C.
Take “CGACGTGCCTTATGTGCTG+CAGCACATCTAGCACGTCG ((((((((...((((((((+))))))))...))))))))”: the Tm is 48.1 °C.
For the substance “CGACGTGCCGAATGTGCTG+CAGCACATGTCGCACGTCG ((((((((...((((((((+))))))))...))))))))”, the Tm stood at 51.4 °C.
As to “CGACGTGCTAAATGTGCTG+CAGCACATTATGCACGTCG ((((((((..(((((((((+)))))))))..))))))))”, the Tm was 53.1 °C.
As to “CGACGTGCCTCATGTGCTG+CAGCACATACAGCACGTCG ((((((((...((((((((+))))))))...))))))))”, the Tm was 48.3 °C.
For “CGACGTGCGCTATGTGCTG+CAGCACATTTTGCACGTCG ((((((((...((((((((+))))))))...))))))))”, the Tm is 48.3 °C.
For “CGACGTGCCCGATGTGCTG+CAGCACATTGCGCACGTCG ((((((((.(.((((((((+)))))))).).))))))))”, the Tm is 51.2 °C.
“CGACGTGCTCCATGTGCTG+CAGCACATCAGGCACGTCG ((((((((...((((((((+))))))))...))))))))”: the Tm came to 48.6 °C.
